{"source": "paper PMC4889959", "about": "(Nucleic Acids Research, 2016)", "proteins": {"B1": {"name": "Human SLX4BTB (residues 660–795) (domain or fragment, UniProt Q8IY92 660-795, looked up)", "chain": "QDKHPDRGGRTLLSLGLLVADFGAMVNNPHLSDVQFQTDSGEVLYAHKFVLYARCPLLIQYVNNEGFSAVEDGVLTQRVLLGDVSTEAARTFLHYLYTADTGLPPGLSSELSSLAHRFGVSELVHLCEQVPIATDS"}}, "biological_target": "the molecule itself", "assay": "SEC; 2 mg of protein (20 mg/ml) on a calibrated Superdex 75 column (120 ml), 25 mM pH 8.0 Tris-HCl, 150 mM NaCl, 2 mM DTT"}
{"protein": "B1", "values": [{"measurement": "stoichiometry N", "value": 2}]}
